Results on one molecule are retold here after patent publication US10314894B2, “Treatment of cardio-renal disease using PCSK6” (THE CLEVELAND CLINIC FOUNDATION, priority 2014, dated 2019).

The target in this test is T1, corin mutant R801A (Homo sapiens, UniProt Q9Y5Q5, R801A).
T1 construct: expressed in transfected cells; host or cells: HEK293
T1 sequence (Q9Y5Q5 1-1042 R801A): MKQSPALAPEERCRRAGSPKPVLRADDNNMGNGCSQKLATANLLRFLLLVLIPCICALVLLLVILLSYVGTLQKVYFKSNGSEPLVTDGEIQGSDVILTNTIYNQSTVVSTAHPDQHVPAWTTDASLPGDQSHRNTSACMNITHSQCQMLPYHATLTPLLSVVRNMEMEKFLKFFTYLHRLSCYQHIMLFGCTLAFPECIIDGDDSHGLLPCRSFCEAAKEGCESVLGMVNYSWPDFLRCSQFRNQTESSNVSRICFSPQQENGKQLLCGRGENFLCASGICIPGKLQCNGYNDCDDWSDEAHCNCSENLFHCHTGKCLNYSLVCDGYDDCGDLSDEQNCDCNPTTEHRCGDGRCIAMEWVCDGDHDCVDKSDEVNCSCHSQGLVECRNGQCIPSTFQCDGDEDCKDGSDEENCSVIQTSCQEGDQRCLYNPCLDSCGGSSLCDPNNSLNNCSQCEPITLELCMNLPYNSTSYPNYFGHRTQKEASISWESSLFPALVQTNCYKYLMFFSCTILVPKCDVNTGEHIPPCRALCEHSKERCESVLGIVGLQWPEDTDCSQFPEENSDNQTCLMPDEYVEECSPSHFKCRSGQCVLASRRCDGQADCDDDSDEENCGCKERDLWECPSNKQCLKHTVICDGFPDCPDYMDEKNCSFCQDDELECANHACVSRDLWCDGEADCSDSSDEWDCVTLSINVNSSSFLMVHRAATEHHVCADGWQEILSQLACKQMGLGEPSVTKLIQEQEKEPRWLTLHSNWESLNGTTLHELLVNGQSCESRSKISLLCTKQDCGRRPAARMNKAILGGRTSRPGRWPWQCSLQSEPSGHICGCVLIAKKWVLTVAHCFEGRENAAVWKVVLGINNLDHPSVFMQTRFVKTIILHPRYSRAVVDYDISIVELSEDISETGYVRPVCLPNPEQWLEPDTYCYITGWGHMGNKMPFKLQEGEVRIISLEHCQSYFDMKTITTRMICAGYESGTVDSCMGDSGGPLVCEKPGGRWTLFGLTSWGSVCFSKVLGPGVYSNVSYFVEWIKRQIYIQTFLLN
In words: Corin activation by purified PCSK6 on HEK293 cells, corin mutant R801A. The format is cell-based. The conditions noted are these: corin R801A mutant lacking the cleavage site, 2 h. On the procedure: HEK293 and HL-1 cells expressing recombinant corin in 6-well plates were incubated with 1.5 mL (200 μM) of membrane impermeable Sulfo-NHS-SS-biotin for 5 min. Qi et al., J Biol Chem 286, 20963-20969 (2011). A quenching solution was added to the wells and incubated on ice for 10 min. Cells were lysed in the lysis buffer. Labeled proteins were isolated with avidin-coupled agarose beads and analyzed by Western blotting.
Stable HEK293 cells were established to produce human PCSK6 with a C-terminal flag tag. The cells were cultured in DMEM with 10% FBS and 600 μg/mL G418. At confluency, the cells were washed with PBS and cultured with Reduced-Serum Medium. After 72 h, the conditioned medium was collected, centrifuged (10 min at 17,000 g) to remove cell debris, and concentrated to ⅕ of the original volume using a Centrifugal filter unit at 4° C. The concentrated medium was incubated with anti-flag M2 affinity bead slurry in a volume ratio of 25:1 on a rotator at 4° C. for 2 h. […] After centrifugation, the supernatant containing purified PCSK6 was collected, and analyzed by SDS-PAGE followed by silver staining and Western blotting.
Stable HEK293 cells expressing human corin were cultured in 6-well plates in DMEM with 10% FBS and 2 μM monensin. […] After 2 h, cell surface proteins were labeled and corin protein was analyzed by Western blotting.

B1: proprotein convertase subtilisin/kexin-6 (protein, listed as Homo sapiens)
chain: MPPRAPPAPGPRPPPRAAAATDTAAGAGGAGGAGGAGGPGFRPLAPRPWRWLLLLALPAACSAPPPRPVYTNHWAVQVLGGPAEADRVAAAHGYLNLGQIGNLEDYYHFYHSKTFKRSTLSSRGPHTFLRMDPQVKWLQQQEVKRRVKRQVRSDPQALYFNDPIWSNMWYLHCGDKNSRCRSEMNVQAAWKRGYTGKNVVVTILDDGIERNHPDLAPNYDSYASYDVNGNDYDPSPRYDASNENKHGTRCAGEVAASANNSYCIVGIAYNAKIGGIRMLDGDVTDVVEAKSLGIRPNYIDIYSASWGPDDDGKTVDGPGRLAKQAFEYGIKKGRQGLGSIFVWASGNGGREGDYCSCDGYTNSIYTISVSSATENGYKPWYLEECASTLATTYSSGAFYERKIVTTDLRQRCTDGHTGTSVSAPMVAGIIALALEANSQLTWRDVQHLLVKTSRPAHLKASDWKVNGAGHKVSHFYGFGLVDAEALVVEAKKWTAVPSQHMCVAASDKRPRSIPLVQVLRTTALTSACAEHSDQRVVYLEHVVVRTSISHPRRGDLQIYLVSPSGTKSQLLAKRLLDLSNEGFTNWEFMTVHCWGEKAEGQWTLEIQDLPSQVRNPEKQGKLKEWSLILYGTAEHPYHTFSAHQSRSRMLELSAPELEPPKAALSPSQVEVPEDEEDYTAQSTPGSANILQTSVCHPECGDKGCDGPNADQCLNCVHFSLGSVKTSRKCVSVCPLGYFGDTAARRCRRCHKGCETCSSRAATQCLSCRRGFYHHQEMNTCVTLCPAGFYADESQKNCLKCHPSCKKCVDEPEKCTVCKEGFSLARGSCIPDCEPGTYFDSELIRCGECHHTCGTCVGPGREECIHCAKNFHFHDWKCVPACGEGFYPEEMPGLPHKVCRRCDENCLSCAGSSRNCSRCKTGFTQLGTSCITNHTCSNADETFCEMVKSNRLCERKLFIQFCCRTCLLAG
modifications: C-terminal FLAG tag
B1: the “activation of corin on the cell surface by purified recombinant PCSK6” value is recorded as “did not cleave”.
